B1: His6-tagged VEGF-A165-HBD (heparin binding domain of human vascular endothelial growth factor VEGF-A165) (domain or fragment)
chain: PCGPCSERRKHLFVQDPQTCKCSCKNTDSRCKARQLELNERTCRCDKPRR
B2: VEGF-A165-HBD with the His6-tag removed (domain or fragment)
chain: B1 chain
B3: VEGF-A165 (R&D Systems), unlabelled (ligand)
chain: APMAEGGGQNHHEVVKFMDVYQRSYCHPIETLVDIFQEYPDEIEYIFKPSCVPLMRCGGCCNDEGLECVPTEESNITMQIMRIKPHQGQHIGEMSFLQHNKCECRPKKDRARQENPCGPCSERRKHLFVQDPQTCKCSCKNTDSRCKARQLELNERTCRCDKPRR
modifications: Disulfide-linked homodimer. Mature VEGF165 (equals P15692-4 residues 27-191, 165 aa) is built from the 395-aa displayed form by removing exon 6a, with K to N at the splice junction. Limits follow the standard mature VEGF165; the paper does not print them.

Experiments:
[1] = molecular target: T1, NRP1 (neuropilin 1) expressed from an adenovirus on DU145 cells (UniProt O14786 22-923); test: competition with bt-VEGF-A165 on DU145 cells
T1 sequence (O14786 22-923): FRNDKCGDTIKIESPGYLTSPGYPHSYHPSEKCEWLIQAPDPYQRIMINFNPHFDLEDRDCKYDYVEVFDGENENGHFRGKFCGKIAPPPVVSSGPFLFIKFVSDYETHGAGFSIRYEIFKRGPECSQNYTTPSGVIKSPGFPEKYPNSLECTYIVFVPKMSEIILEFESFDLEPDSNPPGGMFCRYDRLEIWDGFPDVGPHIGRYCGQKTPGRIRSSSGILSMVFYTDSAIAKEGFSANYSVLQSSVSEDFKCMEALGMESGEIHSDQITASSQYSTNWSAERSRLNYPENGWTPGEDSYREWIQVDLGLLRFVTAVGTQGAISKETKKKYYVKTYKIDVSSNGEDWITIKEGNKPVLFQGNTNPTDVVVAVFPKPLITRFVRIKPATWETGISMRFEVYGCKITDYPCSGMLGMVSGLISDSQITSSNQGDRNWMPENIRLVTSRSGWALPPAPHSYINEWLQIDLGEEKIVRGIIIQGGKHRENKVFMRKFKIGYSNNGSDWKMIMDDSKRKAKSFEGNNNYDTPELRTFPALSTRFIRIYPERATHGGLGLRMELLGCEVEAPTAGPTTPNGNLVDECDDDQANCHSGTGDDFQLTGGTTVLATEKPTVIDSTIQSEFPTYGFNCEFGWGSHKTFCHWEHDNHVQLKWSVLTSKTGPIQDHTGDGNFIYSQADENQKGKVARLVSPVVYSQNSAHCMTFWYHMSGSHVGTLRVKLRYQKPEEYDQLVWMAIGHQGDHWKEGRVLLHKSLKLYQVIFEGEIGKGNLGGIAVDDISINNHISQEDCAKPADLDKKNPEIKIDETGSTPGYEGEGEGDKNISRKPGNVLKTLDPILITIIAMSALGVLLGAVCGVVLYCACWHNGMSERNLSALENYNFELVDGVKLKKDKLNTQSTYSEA

[2] = molecular target: T1, NRP1 (neuropilin 1) expressed from an …; test: competition with bt-VEGF-A165 on DU145 cells, +BSA

Binder	IC50 [1] [nM]	IC50 [2] [nM]
B1	161	152
B2	107	229
B3	0.8	–
